T1: human DR4 (Death Receptor 4), cell surface expressed on human tumor cell lines (human, UniProt O00220 24-468)
T1 construct: also called TNFRSF10A; TRAIL-R1
T1 sequence: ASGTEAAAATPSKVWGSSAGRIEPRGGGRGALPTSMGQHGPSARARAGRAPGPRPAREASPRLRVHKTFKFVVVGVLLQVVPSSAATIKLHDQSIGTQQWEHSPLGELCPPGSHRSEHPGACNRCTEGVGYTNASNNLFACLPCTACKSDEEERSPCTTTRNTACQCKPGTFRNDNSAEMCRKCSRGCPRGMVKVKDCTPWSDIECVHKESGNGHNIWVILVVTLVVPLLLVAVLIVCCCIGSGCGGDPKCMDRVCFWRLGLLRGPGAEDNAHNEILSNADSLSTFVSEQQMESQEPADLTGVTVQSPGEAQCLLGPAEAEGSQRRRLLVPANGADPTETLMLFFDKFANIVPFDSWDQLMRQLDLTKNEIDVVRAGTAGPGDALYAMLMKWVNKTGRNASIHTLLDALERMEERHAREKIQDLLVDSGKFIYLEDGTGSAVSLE


Columns and labels:
[1] = biological target: T1, human DR4 (Death Receptor 4), cell …; experiment: flow cytometry, MDA-MB-231 cells, N = 1; MDA-MB-231 cells, up to 90 µg/mL, N = 1
[2] = biological target: T1, human DR4 (Death Receptor 4), cell …; experiment: flow cytometry, MDA-MB-231 cells, N = 2; MDA-MB-231 cells, up to 90 µg/mL, N = 2
[3] = biological target: T1, human DR4 (Death Receptor 4), cell …; experiment: flow cytometry, MDA-MB-231 cells, average ± SEM; MDA-MB-231 cells, up to 90 µg/mL, average of N = 2
[4] = biological target: T1, human DR4 (Death Receptor 4), cell …; experiment: flow cytometry, MDA-MB-231 cells, N = 1
[5] = biological target: T1, human DR4 (Death Receptor 4), cell …; experiment: flow cytometry, MDA-MB-231 cells, N = 2
[6] = biological target: T1, human DR4 (Death Receptor 4), cell …; experiment: flow cytometry, MDA-MB-231 cells, average ± SEM
[7] = biological target: T1, human DR4 (Death Receptor 4), cell …; experiment: flow cytometry on OPM-2 cells (endogenous DR4), gMFI PE
Protocol: Immunol. […] Human lung fibroblasts and CAFs (50,000 cells/well) were seeded in 96-Well round bottom plates (Greiner Bio-one, Cat #650101). Antibody dilutions were prepared using fluorescence-activated cell sorting (FACS) buffer, consisting of phosphate buffer saline (PBS, Lonza, Cat #BE17-517Q)+1% Bovine Serum Albumin (BSA, Roche, Cat #10735086001)+0.02% Sodium Azide (Bio-World, Cat #41920044-3). Plates were centrifuged, supernatant was removed, cells were resuspended in 50 μL of human Fc Block (BD, Cat #564220, diluted 1:100 in FACS buffer) and 50 μL of viability stain TO-PRO-3 Iodide (Thermo Fisher, Cat #T3605, diluted 1: 25,000 in FACS buffer), and incubated for 15 min at 4° C. Plates were washed three times with FACS buffer. […] Antibody binding to viable cells (TO-PRO-3 negative) was analyzed by flow cytometry on a FACSCelesta™ (BD biosciences) and data were processed using FlowJo_v10.8.1 (FlowJo LLC). Geomean fluorescence intensity, gMFI, was determined and visualized using GraphPad Prism. Binding curves were analyzed using nonlinear regression analysis. […]
Binding of DR4-specific antibodies BisG1-b12-FEAL/DR4-T1014A04-FEAR, BisG1-b12-FEAL/DR4-chCTB007-FEAR, IgG1-DR4-chCTB007-FEAR and IgG1-DR4-T1014A04-FEAR to cell surface expressed human DR4 was analyzed by flow cytometry using the human cancer cell line OPM-2 (DSMZ, Cat #ACC 50), which endogenously expresses DR4.

Binder	EC50 [1] [µg/mL]	EC50 [2] [µg/mL]	EC50 [3] [µg/mL]	EC50 [4] [µg/mL]	Max MFI (at 90 µg/mL) [4] [MFI]	EC50 [5] [µg/mL]	Max MFI (at 90 µg/mL) [5] [MFI]	EC50 [6] [µg/mL]	Max MFI (at 90 µg/mL) [6] [MFI]	EC50 (read off the curve) [7] [µg/mL]
BisG1-b12-FEAL/DR4-T1014A04-FEAR (bispecific antibody, human IgG1, kappa, lambda, Fab-arm exchange of IgG1-b12-FEAL and IgG1-DR4-T1014A04-FEAR) heavy 1: QVQLVQSGAEVKKPGASVKVSCQASGYRFSNFVIHWVRQAPGQRFEWMGWINPYNGNKEFSAKFQDRVTFTADTSANTAYMELRSLRSADTAVYYCARVGPYSWDDSPQDNYYMDVWGKGTTVIVSSASTKGPSVFPLAPSSKSTSGGTAALGCLVKDYFPEPVTVSWNSGALTSGVHTFPAVLQSSGLYSLSSVVTVPSSSLGTQTYICNVNHKPSNTKVDKRVEPKSCDKTHTCPPCPAPEFEGGPSVFLFPPKPKDTLMISRTPEVTCVVVAVSHEDPEVKFNWYVDGVEVHNAKTKPREEQYNSTYRVVSVLTVLHQDWLNGKEYKCKVSNKALPAPIEKTISKAKGQPREPQVYTLPPSREEMTKNQVSLTCLVKGFYPSDIAVEWESNGQPENNYKTTPPVLDSDGSFLLYSKLTVDKSRWQQGNVFSCSVMHEALHNHYTQKSLSLSPG light 1: EIVLTQSPGTLSLSPGERATFSCRSSHSIRSRRVAWYQHKPGQAPRLVIHGVSNRASGISDRFSGSGSGTDFTLTITRVEPEDFALYYCQVYGASSYTFGQGTKLERKRTVAAPSVFIFPPSDEQLKSGTASVVCLLNNFYPREAKVQWKVDNALQSGNSQESVTEQDSKDSTYSLSSTLTLSKADYEKHKVYACEVTHQGLSSPVTKSFNRGEC heavy 2: EVQLVQSGADVKRPGASVKVSCKISGDSFNAYFIHWVRQAPGQGLEWMGWFNPDSGTADSAQKFHGRVTMTRDTSSSTAFLELSRLRSDDTAVYYCVRQHRGNTFAPWGRGTMVTVSSASTKGPSVFPLAPSSKSTSGGTAALGCLVKDYFPEPVTVSWNSGALTSGVHTFPAVLQSSGLYSLSSVVTVPSSSLGTQTYICNVNHKPSNTKVDKRVEPKSCDKTHTCPPCPAPEFEGGPSVFLFPPKPKDTLMISRTPEVTCVVVAVSHEDPEVKFNWYVDGVEVHNAKTKPREEQYNSTYRVVSVLTVLHQDWLNGKEYKCKVSNKALPAPIEKTISKAKGQPREPQVYTLPPSREEMTKNQVSLTCLVKGFYPSDIAVEWESNGQPENNYKTTPPVLDSDGSFFLYSRLTVDKSRWQQGNVFSCSVMHEALHNHYTQKSLSLSPG light 2: QSVLTQPPSASGSPGQSVTISCTGTTSDVGGYNYVSWYQQHPGKAPKLMIYGVNQRPSGVPDRFSGSKSGNTASLTVSGLQAEDEADYYCSSYAGSNNWVFGGGTKLTVLGQPKAAPSVTLFPPSSEELQANKATLVCLISDFYPGAVTVAWKADSSPVKAGVETTTPSKQSNNKYAASSYLSLTPEQWKSHRSYSCQVTHEGSTVEKTVAPTECS	4.33	6.36	5.35							
IgG1-DR4-chCTB007-FEAR (antibody, V domains shown, Prior art DR4 clone (US20090136503A1)) VH: EVQLQQSGAELVKPGASVKLSCTASGFNIKDTYMHWVKQRPEQGLEWIGRIDPANGNTKYDPKFQGKATITADTSSNTAYLQLSSLTSEDTAVYYCAYYYVSNAWFTYWGQGTLVTVSA VL: DIQMTQSPASLSVSVGETVTITCRASENIYSNLEWYQQKQGKSPQLLVYAATNLADGVPSRFSGSGSGTQYSLKINSLQSEDFGSYYCQHFWGTWTFGGGTKLEIKR				0.04	3750	0.08	3480	0.06	3620	~0.05

From patent publication US20250002610A1 (Genmab, published 2025)
